# According to the RNAGym collection of RNA variant scans (doi:10.7554/elife.80360):
# B1: Hammerhead Ribozyme (parent)
# chain: ACCGGAUGUGCUUUCCGGUCUGAUGAGUCCGUGAGGACGAAACAG
# B2: Hairpin Ribozyme (parent)
# chain: GUCCUCUUUCACGUGCGCGUGAAAGAGAGAAGUGAACCAGAGAAACACACGUUGUGGUAUAUUACCUGGUA
# Variants of: B1
# Assay: self-cleavage, relative activity (ratio to wild type); higher = more cleavage; co-transcriptional
row,Variant,self-cleavage
1,A37G A41G,0.268
2,A37G A41U,0.378
3,A37G A42C,0.342
4,A37G A42G,0.264
5,A37G A42U,0.32
6,A37G A44C,0.313
7,A37G A44G,0.74
8,A37G A44U,0.595
9,A37G C38A,0.639
10,A37G C38G,0.79
11,A37G C38U,0.534
12,A37G C43A,0.332
13,A37G C43G,0.385
14,A37G C43U,0.33
15,A37G G39A,0.362
16,A37G G39C,0.371
17,A37G G39U,0.307
18,A37G G45A,0.486
19,A37G G45C,0.416
20,A37G G45U,0.567
21,A37U,0.799
22,A37U A40C,0.472
23,A37U A40G,0.284
24,A37U A40U,0.303
25,A37U A41C,0.34

row,Variant,self-cleavage
1,A37U A41G,0.406
2,A37U A41U,0.307
3,A37U A42C,0.304
4,A37U A42G,0.271
5,A37U A42U,0.327
6,A37U A44C,0.306
7,A37U A44G,0.801
8,A37U A44U,0.417
9,A37U C38A,0.693
10,A37U C38G,0.384
11,A37U C38U,0.714
12,A37U C43A,0.31
13,A37U C43G,0.271
14,A37U C43U,0.38
15,A37U G39A,0.386
16,A37U G39C,0.326
17,A37U G39U,0.362
18,A37U G45A,0.468
19,A37U G45C,0.363
20,A37U G45U,0.48
21,C38A,0.833
22,C38A A40C,0.411
23,C38A A40G,0.369
24,C38A A40U,0.307
25,C38A A41C,0.287

row,Variant,self-cleavage
1,C38A A41G,0.338
2,C38A A41U,0.336
3,C38A A42C,0.326
4,C38A A42G,0.263
5,C38A A42U,0.283
6,C38A A44C,0.405
7,C38A A44G,0.862
8,C38A A44U,0.396
9,C38A C43A,0.335
10,C38A C43G,0.382
11,C38A C43U,0.462
12,C38A G39A,0.325
13,C38A G39C,0.4
14,C38A G39U,0.315
15,C38A G45A,0.464
16,C38A G45C,0.344
17,C38A G45U,0.461
18,C38G,0.767
19,C38G A40C,0.211
20,C38G A40G,0.357
21,C38G A40U,0.301
22,C38G A41C,0.298
23,C38G A41G,0.404
24,C38G A41U,0.316
25,C38G A42C,0.226

row,Variant,self-cleavage
1,C38G A42G,0.321
2,C38G A42U,0.354
3,C38G A44C,0.508
4,C38G A44G,0.833
5,C38G A44U,0.407
6,C38G C43A,0.456
7,C38G C43G,0.288
8,C38G C43U,0.393
9,C38G G39A,0.285
10,C38G G39C,0.326
11,C38G G39U,0.402
12,C38G G45A,0.461
13,C38G G45C,0.491
14,C38G G45U,0.562
15,C38U,0.974
16,C38U A40C,0.598
17,C38U A40G,0.37
18,C38U A40U,0.348
19,C38U A41C,0.32
20,C38U A41G,0.352
21,C38U A41U,0.453
22,C38U A42C,0.396
23,C38U A42G,0.34
24,C38U A42U,0.317
25,C38U A44C,0.596

row,Variant,self-cleavage
1,C38U A44G,1.44
2,C38U A44U,0.648
3,C38U C43A,0.414
4,C38U C43G,0.321
5,C38U C43U,0.34
6,C38U G39A,0.363
7,C38U G39C,0.584
8,C38U G39U,0.3
9,C38U G45A,0.689
10,C38U G45C,0.529
11,C38U G45U,0.593
12,G39A,0.347
13,G39A A40C,0.387
14,G39A A40G,0.383
15,G39A A40U,0.291
16,G39A A41C,0.341
17,G39A A41G,0.383
18,G39A A41U,0.293
19,G39A A42C,0.369
20,G39A A42G,0.319
21,G39A A42U,0.348
22,G39A A44C,0.39
23,G39A A44G,0.718
24,G39A A44U,0.342
25,G39A C43A,0.284

row,Variant,self-cleavage
1,G39A C43G,0.264
2,G39A C43U,0.341
3,G39A G45A,0.371
4,G39A G45C,0.421
5,G39A G45U,0.372
6,G39C,0.455
7,G39C A40C,0.306
8,G39C A40G,0.331
9,G39C A40U,0.296
10,G39C A41C,0.351
11,G39C A41G,0.328
12,G39C A41U,0.305
13,G39C A42C,0.355
14,G39C A42G,0.279
15,G39C A42U,0.39
16,G39C A44C,0.437
17,G39C A44G,0.638
18,G39C A44U,0.415
19,G39C C43A,0.336
20,G39C C43G,0.384
21,G39C C43U,0.368
22,G39C G45A,0.359
23,G39C G45C,0.368
24,G39C G45U,0.328
25,G39U,0.363

row,Variant,self-cleavage
1,G39U A40C,0.295
2,G39U A40G,0.361
3,G39U A40U,0.307
4,G39U A41C,0.368
5,G39U A41G,0.327
6,G39U A41U,0.326
7,G39U A42C,0.353
8,G39U A42G,0.342
9,G39U A42U,0.39
10,G39U A44C,0.417
11,G39U A44G,0.676
12,G39U A44U,0.372
13,G39U C43A,0.312
14,G39U C43G,0.298
15,G39U C43U,0.371
16,G39U G45A,0.351
17,G39U G45C,0.408
18,G39U G45U,0.445
19,A40C,0.73
20,A40C A41C,0.385
21,A40C A41G,0.307
22,A40C A41U,0.441
23,A40C A42C,0.369
24,A40C A42G,0.314
25,A40C A42U,0.427

row,Variant,self-cleavage
1,A40C A44C,0.396
2,A40C A44G,0.69
3,A40C A44U,0.347
4,A40C C43A,0.299
5,A40C C43G,0.33
6,A40C C43U,0.347
7,A40C G45A,0.431
8,A40C G45C,0.399
9,A40C G45U,0.431
10,A40G,0.4
11,A40G A41C,0.341
12,A40G A41G,0.346
13,A40G A41U,0.31
14,A40G A42C,0.266
15,A40G A42G,0.312
16,A40G A42U,0.253
17,A40G A44C,0.304
18,A40G A44G,0.571
19,A40G A44U,0.254
20,A40G C43A,0.339
21,A40G C43G,0.358
22,A40G C43U,0.268
23,A40G G45A,0.441
24,A40G G45C,0.466
25,A40G G45U,0.421

row,Variant,self-cleavage
1,A40U,0.366
2,A40U A41C,0.275
3,A40U A41G,0.27
4,A40U A41U,0.439
5,A40U A42C,0.369
6,A40U A42G,0.261
7,A40U A42U,0.367
8,A40U A44C,0.474
9,A40U A44G,0.649
10,A40U A44U,0.336
11,A40U C43A,0.344
12,A40U C43G,0.287
13,A40U C43U,0.336
14,A40U G45A,0.343
15,A40U G45C,0.458
16,A40U G45U,0.398
17,A41C,0.376
18,A41C A42C,0.375
19,A41C A42G,0.276
20,A41C A42U,0.235
21,A41C A44C,0.436
22,A41C A44G,0.594
23,A41C A44U,0.3
24,A41C C43A,0.361
25,A41C C43G,0.408

row,Variant,self-cleavage
1,A41C C43U,0.316
2,A41C G45A,0.39
3,A41C G45C,0.336
4,A41C G45U,0.41
5,A41G,0.345
6,A41G A42C,0.294
7,A41G A42G,0.335
8,A41G A42U,0.335
9,A41G A44C,0.391
10,A41G A44G,0.692
11,A41G A44U,0.322
12,A41G C43A,0.317
13,A41G C43G,0.346
14,A41G C43U,0.366
15,A41G G45A,0.25
16,A41G G45C,0.402
17,A41G G45U,0.407
18,A41U,0.393
19,A41U A42C,0.271
20,A41U A42G,0.35
21,A41U A42U,0.244
22,A41U A44C,0.377
23,A41U A44G,0.759
24,A41U A44U,0.378
25,A41U C43A,0.321

row,Variant,self-cleavage
1,A41U C43G,0.332
2,A41U C43U,0.362
3,A41U G45A,0.401
4,A41U G45C,0.392
5,A41U G45U,0.359
6,A42C,0.373
7,A42C A44C,0.262
8,A42C A44G,1.06
9,A42C A44U,0.351
10,A42C C43A,0.368
11,A42C C43G,0.271
12,A42C C43U,0.38
13,A42C G45A,0.539
14,A42C G45C,0.451
15,A42C G45U,0.421
16,A42G,0.336
17,A42G A44C,0.484
18,A42G A44G,0.544
19,A42G A44U,0.233
20,A42G C43A,0.309
21,A42G C43G,0.308
22,A42G C43U,0.326
23,A42G G45A,0.306
24,A42G G45C,0.31
25,A42G G45U,0.354

row,Variant,self-cleavage
1,A42U,0.338
2,A42U A44C,0.96
3,A42U A44G,1.37
4,A42U A44U,0.276
5,A42U C43A,0.344
6,A42U C43G,0.255
7,A42U C43U,0.247
8,A42U G45A,0.374
9,A42U G45C,0.404
10,A42U G45U,0.427
11,C43A,0.375
12,C43A A44C,0.474
13,C43A A44G,0.304
14,C43A A44U,0.391
15,C43A G45A,0.515
16,C43A G45C,0.441
17,C43A G45U,0.68
18,C43G,0.406
19,C43G A44C,0.464
20,C43G A44G,0.934
21,C43G A44U,0.359
22,C43G G45A,0.327
23,C43G G45C,0.378
24,C43G G45U,0.835
25,C43U,0.608

row,Variant,self-cleavage
1,C43U A44C,1.93
2,C43U A44G,0.586
3,C43U A44U,0.346
4,C43U G45A,0.419
5,C43U G45C,0.451
6,C43U G45U,0.423
7,A44C,0.663
8,A44C G45A,0.932
9,A44C G45C,1.14
10,A44C G45U,0.721
11,A44G,1.53
12,A44G G45A,1.25
13,A44G G45C,2.15
14,A44G G45U,1.93
15,A44U,0.756
16,A44U G45A,0.607
17,A44U G45C,1.86
18,A44U G45U,1.91
19,G45A,0.842
20,G45C,0.844
21,G45U,0.898

# Variants of: B2
# Assay: as above
row,Variant,self-cleavage
1,G1A,0.185
2,G1A A23U,0.163
3,G1A A28C,0.175
4,G1A A35C,0.109
5,G1A A35G,0.16
6,G1A A36U,0.0776
7,G1A A41G,0.0682
8,G1A A47U,0.257
9,G1A A49G,0.233
10,G1A A59U,0.286
11,G1A A61C,0.175
12,G1A A61G,0.132
13,G1A C3G,0.342
